In paper PMC7774954 (2020):
Where no end group is shown, it is not given here. The star is where a group is joined. Biotin = O=C1N[C@H]2[C@H](CS[C@H]2CCCCC(=O)*)N1; TTDS = NCCCOCCOCCOCCCNC(=O)CCC(=O)*

T1: MAST2-1 (human)
T1 chain: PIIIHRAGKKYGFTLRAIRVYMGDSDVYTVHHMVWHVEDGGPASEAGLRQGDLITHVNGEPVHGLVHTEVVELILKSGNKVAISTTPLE


Columns and labels:
MAST2-1 [1] = molecular target: T1, MAST2-1; assay: FP
HTRA1-1 [2] = molecular target: HTRA1-1 (human); assay: FP
MAST2-1 [3] = molecular target: T1, MAST2-1; assay: FP; competitive FP with fRSK1 tracer
HTRA1-1 [4] = molecular target: HTRA1-1 (human); assay: FP; competitive FP with fRSK1 tracer

HTRA1-1 (human), sequence (chain, as listed by the source): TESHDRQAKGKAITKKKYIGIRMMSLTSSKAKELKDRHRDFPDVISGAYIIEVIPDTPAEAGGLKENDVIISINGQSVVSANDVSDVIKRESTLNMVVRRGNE

Binder | Kd (MAST2-1 [1]) | Kd (HTRA1-1 [2]) | Kd (MAST2-1 [3]) | Kd (HTRA1-1 [4])
Fluorescein-KLPSTTL [fRSK1] | 6.87 µM | 64.8 µM |  | 
{Biotin-TTDS}-DEDQHTQITKV [PTEN_11] |  |  | 3.14 µM | 45.1 µM
